Results from US20250186597A1, “TARGETED IMMUNE ACTIVATION WITH IL-18 IMMUNOCYTOKINES” (BRIGHT PEAK THERAPEUTICS AG, priority 2023, published 2025).

T1: human IL-18BP (Homo sapiens, UniProt O95998)
T1 construct: His
T1 sequence (O95998 31-194): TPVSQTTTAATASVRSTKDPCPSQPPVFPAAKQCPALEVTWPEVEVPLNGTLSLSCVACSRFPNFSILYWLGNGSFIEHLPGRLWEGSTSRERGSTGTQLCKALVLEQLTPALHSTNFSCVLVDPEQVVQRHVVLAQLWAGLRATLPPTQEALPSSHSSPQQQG


Assays:
NK-92 cells [1] = test: IFNγ induction cellular assay in NK-92 cells (Example 4, used in Example 22C); type: cell-based, human; conditions: IFNg stimulation in NK92 cells
Protocol: The ability of immunocytokines and IL-18 polypeptides provided herein are assessed for ability to induce IFN[…] in a cellular assay according to the protocol below.
The NK cell line NK-92 derived from a patient with lymphoma (ATCC® CRL-2407™) is cultured in aMEM medium supplemented with 20% FCS, Glutamax, 25 µM B-mercaptoethanol, and 100 IU/mL of recombinant human IL-2.
On the day of experiment, cells are harvested and washed with aMEM medium without IL-2 and containing 1 ng/mL of recombinant human IL-12. After counting, cells are seeded at 100,000 cells/well in a 384 well titer plate and incubated at 37° C./5% CO2. Sixteen 4-fold serial dilutions of IL-18 analytes are prepared in aMEM medium, and 1 ng/mL of IL-12 were added to the NK-92 cells. Final IL-18 analyte concentrations range from 56 nM to 5×10^−5 pM.
After incubating the cells for 16-20 hr at 37° C./5% CO2, 5 μL of supernatant is carefully transferred to a 384 microwell OptiPlate. IFNγ levels are measured using a human IFNγ AlphaLISA Assay Kit. Briefly, 10 μL of 2.5× AlphaLISA Anti-IFNγ acceptor beads and biotinylated antibody anti-IFNγ mix are added to the 5 μL of NK-92 supernatants. The mixtures are incubated for 1 hr at room temperature with shaking. Under subdued light, 2.5 μL of 2× streptavidin (SA) donor beads are pipetted into each well, and the wells are incubated for 30 min at room temperature with shaking. AlphaLISA signals are then measured on an EnSpire™ plate reader using 680 nm and 615 nm as excitation and emission wavelengths, respectively. Half maximal effective concentrations (EC50) are calculated based on a variable slope and four parameter analysis using GraphPad PRISM software.
(§1) The experiments described in Example 4 for determination of IFNg stimulation in NK92 cells (and inhibition by IL-18 BP) were performed substantially as described on IL-18 polypeptides in order to assess their activities and their suitability for incorporation into immunocytokine compositions. It is expected that the IL-18 polypeptides provided below would behave analagously to C086 (SEQ ID NO: 30) when incorporated into an immunocytokine composition as those otherwise provided herein.

human IL-18BP = biological target: T1, human IL-18BP; test: IL-18BP binding alphaLISA assay (Example 4, used in Example 22B); conditions: IL-18BP AlphaLISA
Protocol: A human IL-18BP AlphaLISA Assay Kit is used to determine the binding affinity of each immunocytokine and IL-18 variant for IL-18BP, which detected the presence of free form IL-18BP.
Sixteen three-fold serial dilutions of IL-18 analytes are prepared in aMEM medium supplemented with 20% FCS, Glutamax, and 25 µM β-mercaptoethanol in the presence of 5 ng/mL of His-tagged human IL-18BP. Final IL-18 analytes concentration range from 2778 nM to […].
After 1 hr incubation at room temperature, free IL-18BP levels are measured using a […]. In a 384 well OPTIplate, 5 μL of 5× Anti-IL-18BP acceptor beads are added to 7.5 μL of an IL-18/IL-18BP mix. After 30 min incubation at room temperature with shaking, 5 μL of biotinylated Anti-IL-18BP antibodies are added to each well. The plate is incubated further for 1 hr at room temperature. Under subdued light, 12.5 μL of 2× streptavidin (SA) donor beads are pipetted into each well, and the wells are incubated with shaking for an additional 30 min at room temperature. The AlphaLisa signal is then measured on an Enspire plate reader with 680 and 615 nm as excitation and emission wavelengths, respectively. The dissociation constant (KD) is calculated based on a variable slope, four parameter analysis using GraphPad PRISM software.
An IL-18 binding protein AiphaLISA experiment substantially as described in Example 4 was performed on IL-18 polypeptide which can be incorporated into immunocytokine compositions as provided herein to assess ability to bind to IL-181BP. It is expected that the IL-18 polypeptides provided below would behave analogously to C086 (SEQ ID NO: 30) when incorporated into an immunocytokine composition as those otherwise provided herein.

NK-92 cells [2] = test: IL-18 binding protein inhibition cellular assay in NK-92 cells (Example 4, used in Example 22C); type: cell-based, human; conditions: inhibition by IL-18BP of IFNg stimulation in NK92 cells
Protocol: The NK cell line NK-92 derived from a patient with lymphoma (ATCC® CRL-2407™) is cultured in aMEM medium supplemented with 20% FCS-Glutamax, 25 µM B-mercaptoethanol, and 100 IU/mL of recombinant human IL-2.
On the day of experiment, cells are harvested and washed with aMEM medium without IL-2 and containing 1 ng/mL of recombinant human IL-12. After counting, the cells are seeded at 100,000 cells/well in a 384 well titer plate and incubated at 37° C./5% CO2. Sixteen 2-fold serial dilutions of Fc-fused human IL-18 binding protein isoform a (IL-18BPa) are prepared in aMEM medium. 1 ng/mL of IL-12 containing 2 nM of each IL-18 polypeptide variant is added to the NK-92 cells. The final IL-18 analyte concentration is 1 nM, and the final IL-18BPa concentration ranged from 566 nM to […].
After incubating the cells for 16-20 hr at 37° C./5% CO2, 5 μL of the supernatant is carefully transferred to a 384 microwell OptiPlate. IFNγ levels are measured using a human IFNγ AlphaLISA Assay Kit. Briefly, 10 μL of 2.5× AlphaLISA anti-IFNγ acceptor beads and biotinylated antibody anti-IFNγ mix are added to 5 μL of NK-92 supernatants. The mixtures are incubated for 1 hr at room temperature with shaking. Under subdued light, 2.5 μL of 2×SA donor beads are pipetted in each well and incubated for 30 min at room temperature with shaking. AlphaLISA signals are then measured on an EnSpire™ plate reader using 680 nm and 615 nm as excitation and emission wavelengths, respectively. Half maximal inhibitory concentrations (IC50) are calculated based on a variable slope and four parameter analysis using GraphPad PRISM software.
as §1

Row | Molecule | EC50 (NK-92 cells [1]) | Kd (human IL-18BP) | IC50 (NK-92 cells [2])
1 | 42 (protein) YFGKLKSKLSVIRNLNDQVLFIDQGNRPLFEDMTDSDCRDNAPRTIFIISMYADAQPRGMAVAISVKCEKISTLSCENKIISFKEMNPPDNIKDTKSDIIFFQRSVPGHDNKMQFESSSYEGYFLACEKERDLFKLILKKEDELGDRSIMFTVQNED | 0.144 nM | 822 nM | 1060 nM
2 | C144: IL-18 polypeptide: V11I, C38A, K53A, T63A, C76A, C127A (protein) YFGKLESKLSIIRNLNDQVLFIDQGNRPLFEDMTDSDARDNAPRTIFIISMYADSQPRGMAVAISVKCEKISTLSAENKIISFKEMNPPDNIKDTKSDIIFFQRSVPGHDNKMQFESSSYEGYFLAAEKERDLFKLILKKEDELGDRSIMFTVQNED | 0.012 nM | 0.66 nM | 7.52 nM
3 | 46 (protein) YFGKLKSKLSVIRNLNDQVLFIDQGNRPLFEDMTDSDCRDNAPRTIFIISGYADAQPRGMAVTISVKCEKISTLSCENKIISFKEMNPPDNIKDTKSDIIFFQRSVPGHDNKMQFESSSYEGYFLACEKERDLFKLILKKEDELGDRSIMFTVQNED | 7.4 nM | > 1000 nM | 0.189 nM
4 | 48 (protein) YFGKLESKLSVIRNLNDQVLFIDQGNRPLFEDMTDSDSRDNAPRTIFIISMYKDSQPRGMAVTISVKSECISTLSSENKIISFKEMNPPDNIKDTKSDIIFFQRSVPGHDNKMQFESSSYEGYFLASEKERDLFKLILKKEDELGDRSIMFTVQNED | 0.488 nM | 0.21 nM | 0.114 nM
5 | 54 (protein) YFGKLKSKLSVIRNLNDQVLFIDQGNRPLFEDMTDSDSRDNAPRTIFIISMYADSQPRGMAVTISVKSECISTLSSENKIISFKEMNPPDNIKDTKSDIIFFQRSVPGHDNKMQFESSSYEGYFLASEKERDLFKLILKKEDELGDRSIMFTVQNED | 0.962 nM | 446 nM | 23.5 nM
6 | 50 (protein) YFGKLKSKLSVIRNLNDQVLFIDQGNRPLFEDMTDSDCRDNAPRTIFIISMYADSQPRGMAVAISVKCEKISTLSCENKIISFKEMNPPDNIKDTKSDIIFFQRSVPGHDNKMQFESSSYEGYFLACEKERDLFKLILKKEDELGDRSIMFTVQNED | 0.0268 nM | 340 nM | > 1000 nM
7 | 5 (protein) YFGKLKSKLSIIRNLNDQVLFIDQGNRPLFEDMTDSDARDNAPRTIFIISMYADSQPRGMAVAISVKAEKISTLSAENKIISFKECNPPDNIKDTKSDIIFFQRSVPGHDNKMQFESSSYEGYFLAAEKERDLFKLILKKEDELGDRSIMFTVQNED | 0.075 nM |  | 62.4 nM
8 | 55 (protein) YFGKLESKLSVIRNLNDQVLFIDQGNRPLFEDMTDSDSRDNAPRTIFIISMYADSQPRGMAVAISVKSECISTLSSENKIISFKEMNPPDNIKDTKSDIIFFQRSVPGHDNKMQFESSSYEGYFLASEKERDLFKLILKKEDELGDRSIMFTVQNED | 17.2 nM | 913 nM | > 1000 nM
9 | 47 (protein) YFGKLESKLSVIRNLNDQVLFIDQGNRPLFEDMTDSDSRDNAPRTIFIISMYKDSQPRGMAVTISVKSEKISTLSSENKIISFKEMNPPDNIKDTKSDIIFFQRSVPGHDNKMQFESSSYEGYFLASEKERDLFKLILKKEDELGDRSIMFTVQNED | 0.115 nM | 0.03 nM | 0.444 nM
10 | 6 (protein) YFGKLKSKLSIIRNLNDQVLFIDQGNRPLFEDMTDSDARDNAPRTIFIISMYADSQPRGMAVAISVKAEKISTLSAENKIISFKEMNPPDNIKDTKSCIIFFQRSVPGHDNKMQFESSSYEGYFLAAEKERDLFKLILKKEDELGDRSIMFTVQNED | 1.37 nM |  | 5.85 nM
11 | C145: IL-18 polypeptide: V11I, C38A, K53A, S55A, C76A, C127A (protein) YFGKLESKLSIIRNLNDQVLFIDQGNRPLFEDMTDSDARDNAPRTIFIISMYADAQPRGMAVTISVKCEKISTLSAENKIISFKEMNPPDNIKDTKSDIIFFQRSVPGHDNKMQFESSSYEGYFLAAEKERDLFKLILKKEDELGDRSIMFTVQNED | 0.087 nM | 9.74 nM | 10.2 nM
12 | C143: IL-18 polypeptide: V11I, C38A, K53A, C76A, C127A (protein) YFGKLESKLSIIRNLNDQVLFIDQGNRPLFEDMTDSDARDNAPRTIFIISMYADSQPRGMAVTISVKCEKISTLSAENKIISFKEMNPPDNIKDTKSDIIFFQRSVPGHDNKMQFESSSYEGYFLAAEKERDLFKLILKKEDELGDRSIMFTVQNED | 0.138 nM | 8.86 nM | 1.62 nM
13 | 57 (protein) YFGKLKSKLSVIRNLNDQVLFIDQGNRPLFEDMTDSDSRDNAPRTIFIISMYADSQPRGMAVTISVKCEKISTLSCENKIISFKEMNPPDNIKDTKSDIIFFQRSVPGHDNKMQFESSSYEGYFLACEKERDLFKLILKKEDELGDRSIMFTVQNED | 0.045 nM | 50.2 nM | 146 nM
